From article PMC9029856, “Impact of Different [Tc(N)PNP]-Scaffolds on the Biological Properties of the Small cRGDfK Peptide: Synthesis, In Vitro and In Vivo Evaluations” (Molecules, 2022)

Test system: receptor-negative human melanoma M21L cells
Assay: Cell uptake and internalization in M21L cells
Format: cell-based
Details: negative M21L cell line, 37 °C, 90 min
Procedure: (§1) Cell uptake and internalization studies were performed on receptor-positive human melanoma M21 (expressing high levels of αvβ3 integrin and moderate level of integrin αvβ5), human breast cancer MCF7 (exclusively expressing αvβ5), and receptor-negative human melanoma M21L cell lines. The expression of αvβ3 and αvβ5 by cells was already evaluated by flow cytometry (Table 2). The stability of each radiolabeled peptide in the culture media before and after cell exposure was assessed.
(§2) Experiments were conducted in suspension at 37 °C. The working conditions were set up to avoid cell damage and/or death. With the use of these information, the cells were pre-incubated in sterile glass tubes at 37 °C for 10 min, in the presence or not of cRGDfK pentapeptide (50 µL; 1.65 mM).
(§3) Then, 1 mL of the cell suspension (1 × 10^6 cells/mL) was incubated with intermittent agitation with 10 µL (10 µCi) of ^99mTc1–3. At 90 min, the cells were moved in Eppendorf microcentrifuge tubes (1.5 mL) and the incubation was interrupted by centrifugation (3000 rpm for 5 min at 10 °C). The supernatant (S1) was separated from the pellet. The cell pellet was treated 10 min at room temperature with saline acetate buffer (CH3COOH 0.2M/NaCl 0.5 M) to remove the membrane-bound compound. After centrifugation (3000 rpm for 10 min at 10 °C), the supernatant (S2) was separated from the pellet (P1), and each fraction was collected, placed in a separated counting tube, and the activity was measured using a NaI counter (Cobra II, Packard) to estimate both the cell uptake and the internalized fraction.
(§4) The uptake of complexes was expressed as percentage cell uptake of the total activity on 10^6 cells (% cell uptake/10^6 cells).
(§5) All assessments were conducted in triplicate for three experiments.

Substance	cell uptake (sum of surface bound and internalized radioactivity)
[Tc(N)(H2NS-cRGDfK)(PNP3)]^+ [^99mTc1]	1.77 ± 0.20 % cell uptake/10^6 cells

Test system: serum proteins
Assay: not given
Format: in vitro ADME
Details: not given
Procedure: Thus, to have some predictive indications of the metabolic outcome of our compounds, the binding to serum proteins and the enzymatic biotransformation of ^99mTc1–3 in blood and tissue homogenates were assessed in vitro by incubating the purified compounds at 37 °C in human and mouse sera as well as in murine liver and kidney homogenates.
Protein Binding. The affinity of the ^99mTc(N) complexes toward the serum proteins was evaluated by chromatographic methods.
Upon incubation, 25 µL of each sample was withdrawn and loaded on a pre-spun (735× g for 2 min) Sephadex G-50 mini-column. The column was centrifuged at 735 × g for 1 min. The collected eluate and the column were counted in a NaI-scintillation counter. The protein-bound complex was calculated as the percentage of the total activity.

Substance	% Protein Binding
[Tc(N)(H2NS-cRGDfK)(PNP3)]^+ [^99mTc1]	14.95 ± 1.95%

Test system: human melanoma M21 (αvβ3 positive) cells
Assay: Cell uptake and internalization in M21 cells
Format: cell-based
Details: M21 blocked by an excess of cold cRGDfK, 37 °C, 90 min
Procedure: as §1, §2, §3, §4, §5

Substance	cell uptake (sum of surface bound and internalized radioactivity), blocked
[Tc(N)(H2NS-cRGDfK)(PNP3)]^+ [^99mTc1]	2.15 ± 0.17 % cell uptake/10^6 cells

Same assay, conditions: M21 unblocked, 37 °C, 90 min

Substance	cell uptake (sum of surface bound and internalized radioactivity)
[Tc(N)(H2NS-cRGDfK)(PNP3)]^+ [^99mTc1]	2.88 ± 0.09 % cell uptake/10^6 cells

Same assay, conditions: internalized radioactivity, melanoma cell lines

Substance	specific/nonspecific ratio, internalized radioactivity only
[Tc(N)(H2NS-cRGDfK)(PNP3)]^+ [^99mTc1]	4.5

Test system: not given
Assay: not given
Design: species or system Sprague Dawley rats
Details: rat, in vivo, iv, 15 uCi/100 uL, 0.5 h
Procedure: Pharmacokinetics and metabolism.
Female Sprague Dawley rats weighing 180–200 g were anesthetized with an intraperitoneal injection of a mixture of Zoletil (40 mg/kg) and xylazine (2 mg/kg). A jugular vein was surgically exposed, and the solution containing the radiolabeled peptide was injected (15 µCi/100 µL). The rats (n = 3) were scarified by cervical dislocation at different times after injection. The blood was withdrawn from the heart with a syringe immediately after death and quantified. Organs were excised, rinsed in saline, weighed, and the activity was counted in a NaI counter. The results were expressed as the percentage of injected activity per gram of tissue (%IA/g) to be able to compare our results with those reported in the literature.

Substance	Blood	Heart	Intestine	Kidneys	Liver	Lungs	Muscle	Spleen	Stomach	Urine
[Tc(N)(H2NS-cRGDfK)(PNP3)]^+ [^99mTc1]	0.81 ± 0.05 %IA/g	0.26 ± 0.05 %IA/g	0.65 ± 0.16 %IA/g	2.71 ± 0.18 %IA/g	0.96 ± 0.10 %IA/g	0.64 ± 0.09 %IA/g	0.21 ± 0.09 %IA/g	0.65 ± 0.09 %IA/g	0.53 ± 0.07 %IA	27.2 ± 11.7 %IA

Same assay, conditions: rat, in vivo, iv, 15 uCi/100 uL, 1 h

Substance	Blood	Heart	Intestine	Kidneys	Liver	Lungs	Muscle	Spleen	Stomach	Urine
[Tc(N)(H2NS-cRGDfK)(PNP3)]^+ [^99mTc1]	0.30 ± 0.04 %IA/g	0.15 ± 0.01 %IA/g	0.60 ± 0.12 %IA/g	1.57 ± 0.13 %IA/g	0.75 ± 0.02 %IA/g	0.43 ± 0.01 %IA/g	0.13 ± 0.06 %IA/g	0.51 ± 0.04 %IA/g	0.41 ± 0.02 %IA	33.1 ± 5.6 %IA

Same assay, conditions: rat, in vivo, iv, 15 uCi/100 uL, 2 h

Substance	Blood	Heart	Intestine	Kidneys	Liver	Lungs	Muscle	Spleen	Stomach	Urine
[Tc(N)(H2NS-cRGDfK)(PNP3)]^+ [^99mTc1]	0.09 ± 0.01 %IA/g	0.10 ± 0.02 %IA/g	0.40 ± 0.07 %IA/g	0.92 ± 0.20 %IA/g	0.68 ± 0.06 %IA/g	0.25 ± 0.03 %IA/g	0.10 ± 0.06 %IA/g	0.47 ± 0.04 %IA/g	0.34 ± 0.04 %IA	54.3 ± 1.9 %IA

Same assay, conditions: rat, in vivo, iv, 15 uCi/100 uL, 4 h

Substance	Blood	Heart	Intestine	Kidneys	Liver	Lungs	Muscle	Spleen	Stomach	Urine
[Tc(N)(H2NS-cRGDfK)(PNP3)]^+ [^99mTc1]	0.05 ± 0.01 %IA/g	0.08 ± 0.01 %IA/g	0.38 ± 0.01 %IA/g	0.88 ± 0.09 %IA/g	0.66 ± 0.07 %IA/g	0.16 ± 0.04 %IA/g	0.06 ± 0.01 %IA/g	0.45 ± 0.00 %IA/g	0.29 ± 0.02 %IA	55.9 ± 7.1 %IA

Test system: not given
Assay: not given
Design: species or system Sprague Dawley rats
Details: rat, in vivo
Procedure: As expected, MRT values of liver and kidneys were much higher than the dose of stomach, spleen, lung, and heart.
The time–activity curves of the main organs were obtained using the biodistribution data (%IA/organ) as input for the CoKiMo spreadsheet software. Then, the organ mean residence times (MRT) were computed by integration of the organ activity curves, extrapolated until 5 half-lives of Tc-99m (30 h) and corrected for its physical decay, to evaluate the pharmacokinetic profile of each radiolabeled peptide.

Substance	MRT Blood	MRT Heart	MRT Kidney	MRT Liver	MRT Lung	MRT Spleen	MRT Stomach
[Tc(N)(H2NS-cRGDfK)(PNP3)]^+ [^99mTc1]	14.7 min	0.3 min	9.2 min	30.5 min	0.9 min	1.2 min	1.5 min
